In patent US20190177417A1 (BIOATLA, published 2019):
Positions count from the first letter of the chain named. Names may count otherwise.

B1: LC-H091L (antibody, V domains shown)
VH: EVQLVQSGAEVKKPGATVKISCKVSGYSFTGHTMNWIRQPPGKGLEWIGLIKPSNGGTSYNQKFKGRVTISADKSISTAYLQWSSLKASDTAMYYCAHGHYESYFAMDYWGQGTLVTVSS
VL: DIQMTQSPSSLSASVGDRVTITCKASQDVSSAVAWYQQKPGQAPRLLIYWASTRHTGVPSRFSGSGSGTEFTLTISSLQPDDFATYYCQELFSTPLTFGQGTKVEIK
B2: LC-P095W (antibody, V domains shown)
VH: B1 VH
VL: B1 VL with L91H, P95W
B3: LC-P095T (antibody, V domains shown)
VH: B1 VH
VL: B1 VL with L91H, P95T
B4: LC-P095K (antibody, V domains shown)
VH: B1 VH
VL: B1 VL with L91H, P95K
B5: LC-L096R (antibody, V domains shown)
VH: B1 VH
VL: B1 VL with L91H, L96R
B6: LC-P095V (antibody, V domains shown)
VH: B1 VH
VL: B1 VL with L91H, P95V
B7: LC-H091Q (antibody, V domains shown)
VH: B1 VH
VL: B1 VL with L91Q
B8: LC-L096G (antibody, V domains shown)
VH: B1 VH
VL: B1 VL with L91H, L96G
B9: LC-T097I (antibody, V domains shown)
VH: B1 VH
VL: B1 VL with L91H, T97I
B10: LC-P095S (antibody, V domains shown)
VH: B1 VH
VL: B1 VL with L91H, P95S

What was measured:
Axl protein [1] = target: T1, Axl protein (human, UniProt P30530 26-451); assay: ELISA, 1:9 dilution, pH 6.0 over pH 7.4
T1 construct: extracellular domain; also called human Axl; hAxl
T1 sequence (looked up): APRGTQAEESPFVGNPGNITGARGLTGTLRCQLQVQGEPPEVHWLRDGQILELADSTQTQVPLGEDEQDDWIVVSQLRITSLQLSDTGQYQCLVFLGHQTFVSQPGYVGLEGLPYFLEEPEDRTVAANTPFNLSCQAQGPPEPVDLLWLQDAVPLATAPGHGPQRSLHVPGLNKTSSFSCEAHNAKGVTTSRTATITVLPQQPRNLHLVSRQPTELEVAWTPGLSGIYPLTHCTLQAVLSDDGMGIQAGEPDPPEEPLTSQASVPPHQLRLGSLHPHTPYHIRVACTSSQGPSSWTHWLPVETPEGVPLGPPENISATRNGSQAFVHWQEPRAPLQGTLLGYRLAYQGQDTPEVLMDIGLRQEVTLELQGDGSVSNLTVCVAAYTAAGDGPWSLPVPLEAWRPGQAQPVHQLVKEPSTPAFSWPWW

Axl protein [2] = target: T1, Axl protein; assay: ELISA, 1:3 dilution, pH 6.0 over pH 7.4

| Binder | Affinity ELISA CPE mutant ratio (1:9, pH 6.0/7.4) (Axl protein [1]) [ratio] | Affinity ELISA CPE mutant ratio (1:3, pH 6.0/7.4) (Axl protein [2]) [ratio] |
| --- | --- | --- |
| B1 | 2.08 | 2.8 |
| B2 | 2.26 | 2.15 |
| B3 | 2.09 | 2.5 |
| B4 | 3.47 | 3.84 |
| B5 | 2.18 | 2.88 |
| B6 | 2.13 | 1.87 |
| B7 | 2.01 | 1.77 |
| B8 | 2.44 | 2.17 |
| B9 | 4.05 | 3.09 |
| B10 | 3.51 | 2.84 |
